# Test results taken from publication PMC11565947 (bioRxiv, 2024).
# T1: prefusion-stabilized hMPV F protein (hMPV prefusion F trimer) (human metapneumovirus; subgroup/strain …, stabilised)
# T1 chain 1: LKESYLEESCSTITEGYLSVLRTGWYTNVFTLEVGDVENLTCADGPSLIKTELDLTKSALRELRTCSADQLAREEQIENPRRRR
# T1 chain 2: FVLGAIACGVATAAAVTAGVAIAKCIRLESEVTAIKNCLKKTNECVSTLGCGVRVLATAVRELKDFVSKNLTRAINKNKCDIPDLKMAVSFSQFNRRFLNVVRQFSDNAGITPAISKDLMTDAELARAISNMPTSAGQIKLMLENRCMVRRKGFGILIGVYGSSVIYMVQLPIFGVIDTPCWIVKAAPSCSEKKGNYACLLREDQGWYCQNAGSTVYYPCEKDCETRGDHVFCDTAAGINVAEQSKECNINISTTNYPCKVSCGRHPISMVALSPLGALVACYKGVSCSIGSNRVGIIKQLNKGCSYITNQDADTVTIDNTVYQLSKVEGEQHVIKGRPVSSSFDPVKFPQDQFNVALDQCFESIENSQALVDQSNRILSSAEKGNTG
# T2: prefusion-stabilized hMPV F construct hMPV F-DS-CavEs2-IPDS (human metapneumovirus, N-linked glycans (Asn172, Asn57))
# T2 chain: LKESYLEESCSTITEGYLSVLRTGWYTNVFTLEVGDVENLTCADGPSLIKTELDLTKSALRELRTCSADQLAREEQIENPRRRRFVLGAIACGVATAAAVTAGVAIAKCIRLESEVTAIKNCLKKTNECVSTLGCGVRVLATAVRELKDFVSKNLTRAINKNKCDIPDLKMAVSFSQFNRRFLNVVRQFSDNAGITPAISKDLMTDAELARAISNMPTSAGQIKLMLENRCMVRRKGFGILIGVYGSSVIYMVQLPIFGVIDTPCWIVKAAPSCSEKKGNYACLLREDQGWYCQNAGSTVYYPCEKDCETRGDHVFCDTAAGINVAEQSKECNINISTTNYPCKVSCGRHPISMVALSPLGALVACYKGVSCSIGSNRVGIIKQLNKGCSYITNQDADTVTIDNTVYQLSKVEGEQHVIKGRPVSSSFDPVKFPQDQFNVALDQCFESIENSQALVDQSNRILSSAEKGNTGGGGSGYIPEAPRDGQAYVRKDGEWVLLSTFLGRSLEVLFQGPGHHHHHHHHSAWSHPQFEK
# B1: monoclonal antibody 5–1 (recombinant human IgG1) (antibody, V domains shown)
# VH: QGQLVQSGPEVKKPGATVKVSCRASAYPFGNYGITWVRQVPGQGLEWVGWISAYTGHTKFPQNFQGRVTLTADTSTSTGYMELRSLTSDDTAVYYCARGPCCSSPRPYDIWGQGTMVTVSS
# VL: DIQMTQSPSTLSASVGDRVTITCRASQSIDDWLAWYQHSPGKAPKLLIYRASRLESGVPSRFSGSGSGTEFTLTISSLQPDDFASYYCQQCYTYSQTFGQGTRVEIK
# B2: 5–1 antigen-binding fragment (Fab) (Fab, V domains shown)
# VH: B1 VH
# VL: B1 VL
# Key:
# [1] = molecular target: T1, prefusion-stabilized hMPV F protein …; experiment: cell-based or functional assay
# [2] = molecular target: prefusion-stabilized RSV F protein (RSV prefusion F trimer) (human respiratory syncytial virus A, …, UniProt P03420, stabilised); experiment: ELISA
# [3] = molecular target: T2, prefusion-stabilized hMPV F construct …; experiment: cryo-EM structure
Binder,"PRNT neutralisation of hMPV 97–83 and hMPV TN/93–32, IC50 [1]",binding result [2],stoichiometry N [3]
B1,< 10 ng/mL,binds,
B2,,,3 Fabs per trimer
